Source: patent publication US20220387578A1 (VANDERBILT UNIVERSITY, published 2022)

Experiments:
eHead_H1_v3.0_mC = biological target: T1, eHead_H1_v3.0_mC; experiment: SPR; y axis without title or unit
T1 engineered HA head domain: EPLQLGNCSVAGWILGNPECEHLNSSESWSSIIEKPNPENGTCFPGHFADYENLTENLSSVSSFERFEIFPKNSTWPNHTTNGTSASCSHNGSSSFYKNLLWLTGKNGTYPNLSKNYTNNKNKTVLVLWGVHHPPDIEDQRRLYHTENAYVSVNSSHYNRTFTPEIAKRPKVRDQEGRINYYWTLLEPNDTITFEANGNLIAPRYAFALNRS

eHead_H1_g2.10_mC = biological target: T2, eHead_H1_g2.10_mC; experiment: SPR; y axis without title or unit
T2 chain: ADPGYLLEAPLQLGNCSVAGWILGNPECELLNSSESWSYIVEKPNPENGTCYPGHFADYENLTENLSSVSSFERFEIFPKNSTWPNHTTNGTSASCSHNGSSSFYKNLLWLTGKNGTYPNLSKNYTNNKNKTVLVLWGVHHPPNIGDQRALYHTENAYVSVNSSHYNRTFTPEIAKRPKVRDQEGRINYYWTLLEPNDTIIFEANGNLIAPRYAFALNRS

eHead_H1_v3.1_KO3_mC = biological target: T3, eHead_H1_v3.1_KO3_mC; experiment: SPR
T3 chain: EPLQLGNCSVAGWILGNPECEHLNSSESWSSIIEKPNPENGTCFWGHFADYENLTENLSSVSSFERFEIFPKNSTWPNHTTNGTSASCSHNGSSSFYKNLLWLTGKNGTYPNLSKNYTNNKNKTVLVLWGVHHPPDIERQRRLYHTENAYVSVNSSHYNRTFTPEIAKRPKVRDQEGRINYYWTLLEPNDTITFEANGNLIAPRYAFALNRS

eHead_H1_v3.1_KO1_mC = biological target: T4, eHead_H1_v3.1_KO1_mC; experiment: SPR
T4 chain: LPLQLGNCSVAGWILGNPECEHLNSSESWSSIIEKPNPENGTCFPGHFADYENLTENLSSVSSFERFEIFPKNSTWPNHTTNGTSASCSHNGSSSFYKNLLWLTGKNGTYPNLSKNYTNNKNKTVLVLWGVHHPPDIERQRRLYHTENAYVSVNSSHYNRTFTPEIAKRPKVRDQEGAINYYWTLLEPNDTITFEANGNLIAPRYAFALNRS

B1: FluA20 (as used in the SPR experiments of Example 4) (antibody, V domains shown)
VH: QVQLQESGPGLVKPSETLSLTCSVSGVSVTSDIYYWTWIRQPPGKGLEWIGYIFYNGDTNYNPSLKSRVTMSIDTSKNEFSLRLTSVTAADTAVYFCARGTEDLGYCSSGSCPNHWGQGTLVTVSS
VL: DIQMTQSPSSLSASIGDRVTITCRPSQNIRSFLNWFQHKPGKAPKLLIYAASNLQSGVPSRFSGSGSGTEFTLTIRSLQPEDFATYYCQQSYNTPPTFGQGTKVEIK
B1: binds (eHead_H1_v3.0_mC); binds (eHead_H1_g2.10_mC); no binding (eHead_H1_v3.1_KO3_mC). B1: no binding (eHead_H1_v3.1_KO1_mC).
